Experimental data from the DeepSol protein solubility set.

Assay: soluble on expression in E. coli; label from the status in PepcDB or PDB records

| Sequence | soluble on expression in E. coli |
| --- | --- |
| MMYQVKGYFSSLKGSYYEIGKQQGEFVKQNPYLIPQFIHEENVISNNHWTESRNILNKHCPGINEEIEGFCEVLKIPSKNMMYYYQTLLKAGCSHCAVLPKKTDLEHTYVLRNYDLSPVIDDMRFCSTHVEGAYAHSGFSTQYFGRTEGINEHGLAVTFSACGQPVGNIAGLRKPMVSGLQCFAVIRLLLEKCKNVQEAKLLIEEIPIASNINLIIADPLNAAYIEIFDGHKSTITIDGEKQAFIVSTNHAVSSSIQKLNNRKLEQSTKRYHLLHEHLNRCEQVSIESLKKLVEEEYPAGLTVHNYEEWFGTLHSVLFDLHDRTMKICFGSPLLNDWYSLKVGGSMPFSEVNVNFKNKTYTDFWKEDKNELIPKRLEHHHHHH | soluble |
| MSLHKEYIQNYLNLTRNTGNLMLFAGDQKIEHLNEDFYGKDISKDDADPEHLFKIAENSKIGGFAVQFGLLSRYGRDHKDINYIVKLNSKTNLVDTNQKDPLSRALLDINDILEFKKNSGINIVGVGYTIYLGSEYESEMLSEASKIIYEAHKGGLVVILWIYPRGKAVKDEKDSELISGATGVAACLGADFVKVNYPKSENPAESFKEAVMAAGRTKVVCAGGSSTDIESFLKQLYEQIHISGASGNATGRNIHQKSLSDAVSMCNAIYAITIDGKTVSEALNIYNERKSEGHHHHHH | not soluble |
| KGPNLTEISKKITESNAVVLAVKEVETLLTSIDELAKAIGKKIKSDVSLDNEADHNGSLMSGAYLISTLITKKISAIKDSGELKAEIEKAKKCSEEFTAKLKGEHTDLGKEGVTDDNAKKAILKTNNDKTKGADELEKLFESVKNLSKAAKEMLTNSVKELTSP | soluble |
| MIIMGLFDEVVGAFLKGDAGKYQAILSWVEEQGGIQVLLEKLQSGGLGAILSTWLSNQQGNQSVSGEQLESALGTNAVSDLGQKLGVDTSTASSLLAEQLPKIIDALSPQGEVSPQANNDLLSAGMELLKGKLFR | not soluble |
| MKSNPAIQAAIDLTAGAAGGTACVLTGQPFDTMKVKMQTFPDLYRGLTDCCLKTYSQVGFRGFYKGTSPALIANIAENSVLFMCYGFCQQVVRKVAGLDKQAKLSDLQNAAAGSFASAFAALVLCPTELVKCRLQTMYEMETSGKIAKSQNTVWSVIKSILRKDGPLGFYHGLSSTLLREVPGYFFFFGGYELSRSFFASGRSKDELGPVPLMLSGGVGGICLWLAVYPVDCIKSRIQVLSMSGKQAGFIRTFLNVVKNEGITALYSGLKPTMIRAFPANGALFLAYEYSRKLMMNQLEAY | soluble |
| METRTAENTAIFMCKCCNLFSPNQSELVTHVSEKHGEEGVNVDDVIIPLRPLNTPENPNPSKGGDEFLVMKRKRGRPKGSTKKPSTEEEVVENLVSPSEDGPLATEEGSRLAPSSLECSKCCRKFSNTRQLRKHICIIVLNLGEEDGDAGNESDLDLEKTYKEDDREKASKRPRAQKTEKVQKISGKEAGQLSGAKKPIISVVLTAHEAIPGATKIIPVEAGPPETGAPPPETTAADLVPRRGYQEYAIQQTPYEQPMKSSRLGPTQLKIFTCEYCNKVFKFKHSLQAHLRIHTNEKPYKCSQCSYASAIKANLNVHLRKHTGEKFACDYCSFTCLSKGHLKVHIERVHKKIKQHCRFCKKKYSDVKNLIKHIRDMHDPQDKKVKEALDELRLMTREGKRQLLYDCHICERKFKNELDRDRHMLVHGDKWPFACELCGHGATKYQALELHVRKHPFVYVCALCLKKFVSSIRLRSHIREVHGAAQETLVFTSSINQSFCLLEPGGDIQQEALGDQLQLAAEEFVCPEIDVRKEEACPGEAQPEVGLRELVVPGDAHAPPPGPLATPQSESSSLSPCKLETTVVSSDLNSLGVVSDDFLLKSDTSSAEPPAAAEATSDTQHRDSAQTQGEEVTLLLAKAKSAGPDPESSPGGRQKVGALPASESDSSTCLRANPTEASDLLPTVTDGGDLGVCQPDSCTPSSEHHPGSTAFMKVLDSLQKKQMNTSLCERIRKVYGDLECEYCGKLFWYQVHFDMHVRTHTREHLYYCSQCHYSSITKNCLKRHVIQKHSNILLKCPTDGCDYSTPDKYKLQAHLKVHTELDKRSYSCPVCEKSFSEDRLIKSHIKTNHPEVSMNTISEVLGRRVQLKGLIGKRAMKCPYCDFYFMKNGSDLQRHIWAHEGVKPFKCSLCEYATRSKSNLKAHMNRHSTEKTHLCDMCGKKFKSKGTLKSHKLLHTSDGKQFKCTVCDYTAAQKPQLLRHMEQHASFKPFRCAHCHYSCNISGSLKRHYNRKHPNEEYTNVGSGELAAEALIQQGGLKCPVCSFVYGTKWEFNRHLKNKHGLKVVEIDGDPKWEPAAETPEEPSTQYLYITEAEDVQGTQAAVAALQDLRYTSESGDRLDPTAVNILQQIIELGSETHDAAAVASVVAMAPGTVTVVKQVTDEEPSSNHTVMIQETLQQASVELAEQHHLVVSSDDVEGIETVTVYTQGGEASEFIVYVQEAVQPVEEQVGEQPAPEL | soluble |
| MHMLKARNCGWIRLLPLFMLSLPVQAELRCVANAVDIESFFSAATAEDKQQVEQAINSSVNLVPFGLSASNWKVHRGDLVVEGNIESNQKLIVLGNLTVKGNISTFSLSNPWVILGNVTATNIVADSPLLITGSINASGLVFIDSYYDNPSTIKGSINARGIFINDIIAPVVASSTNSEFMVRASDKHDTENVKKALMIINPDAYYWGLINDEDALKEIFKRSNIRMAGNVCNQMKKEALFRPKPSPELVQELQMLDEGKVAAFEGRDIATFDLAVMRTLPRLKGISANLRKQLINSNDEQTIESMARYMPDNEILELTDQQLGYQPVVLGLLDREPLSVEIMTRMSRLPDGVGPLNLALRENLPLDIVMTLAKRDWDMIIQELYKDAWLLPESIIDGYIRSDDSSIRQVGAGGQLTYNQAMQLANDSSNNVVTSLAFKLAEMKHHGQLLRMTPQESDKVAGYLYQKFENDDDLIRVLFLALPDNLQFNFVKRMEKKSPAYFCCRDMQVIHSDAALQRLLTRFNDPEGWSNLAKNQYLSTSMKQKIWQRALSHRKNNPKADSDAYETSADMILSELISHGEVDDQMLLNATALIRSDDWDFLESALISWDNLPAVVLKELQQNTPRNDIWAKFFLRQENSSRAQVDEALRVYYALDPDALAQLDVLAKQPDRIWWSTLAKSNLTFFKFGALNNRHTPPAVLAAEIDPEWWIVAMNNPRFPVDVLKARLKRDPLLALELVNPELDLVRQLALNGKTRAIREQAMRKLDELY | not soluble |
| MGSDKIHHHHHHVQHDQAPEVYSDLIQMVWALFTPSTVNFFSKGLCANAPFIMEMVDFEALKTVEEDVYLNAYNLTDHKMAIFGKDILDYEHFGATLAYPFIYPPAKVDGKLYLEGAAEDAFNFQGLLEHDEGIRTVVVFDAFGNEGYIQDPPNLWQAWGQNLILPLISLTRHDLAFFEHMLDDWNESHPARQDVELIKVTFPIPPEWLPTALDWSRSNLERMFELGYETGKKFVAEKGVRLGATLPPKPTPAKGRGGAAKKDDDAMFGGASIG | not soluble |
| KQGQTALGVEFGSTRIKSVLIDANNFEVLASGSFEWDNQLVNGIWTYSLDDVWKGLQASYTDLKAEVKDKYDFKLSKIGQIGISAMMHGYLVFDQADKQLAEFRTWRNAITEQAAGELSKLFNFNIPQRWCIAHLYQAILNQEKSVSQIDFMTTLAGYVHWRLTGKKVTGIGDASGIFPIDSNSKDYDQKKLDQFSDLDGVEKQPWDIKRILPKVLLAGQNAGQLTKEGSLLIDPSGDLQDGSVFCPPEGDA | not soluble |
| MGSDKIHHHHHHMRETIREIQKVAYWLAIKGLSEANAGNISVRLDERPEGYEVKSVNEYGFDYDGPEMYLLITATGSRMREVYEDDSKICLLHVLPGKHYEILHGNGKPTSEFPTHLMIHAKFKEMNPEKKAIVHTHPLNLLTLMNLEEFQELLPKMMKIHPEVLIFFPQGISVVEFEKPGSVELGLKTVEKSEGKDAVLWDKHGVVAFGKDVAEAYDRVEILEKAAEILLRVLSLGRNPTGVPEGWL | not soluble |
| GPGSMFSGSEGSVRTDDTNVEPPPIPKTRGPLLFEGVRLAGGPPRRTPKRSCSRYFSVTRKTTSAGTDECEHAPPGFSLVNTPSTQDVSPSAKMELPCSAAAHYDDDDDDDDIIPSTAPLPTPHPVMHRVLATGQPNGVSRLLPFDEYVVEEVTPRKCSSISADTSGAAPSTPQGTELREVTQVEEQSPLPAVPEMCESPTRFTLGPRLPVNGEKVRMDFYFLQQEVDAWAKPIETTADVEWHKQHLQETRVAMRSLLHELEVLIAREAAEHERLCIARGFSAMESTSDGKCTYAGETDVVSKTRGKEWKQEELETLEAWRVEKGALLAQKSKLLREHQELQYRLRSHLSGSATGRVTPSPNTSVSRSNKSRGDEGNIGGMSTPLDNGVAQLRLEISEMNAKLKKLEDAYKVLHDNQQWRQGEFDDEYGALCRALATATAGEINNRTALQDTIREAEGVRANCLRQGDASLVSLMERGLSEAKAALKCHDTEQYETK | not soluble |
| MSIESSATPTTPNAEALQLNSTEVRILGCLIEKQATNPETYPLTLNALVIACNQKTSRDPVMNLTQGQVGQSLRALEGRGLTRLVMGSRADRWEHKVDKGLELVPAQVILTGLLLLRGPQTVSELLTRSNRMHDFEDSEQVVHQLERLIARGLATLVPRQSGQREDRYMHLIGDPEDLQD | soluble |
| MGGDSKGTYCGAPILGPGSAPKLSTKTKFWRSSTTPLPPGTYEPAYLGGKDPRVKGGPSLQQVMRDQLKPFTEPRGKPPKPSVLEAAKKTIINVLEQTIDPPEKWSFTQACASLDKTTSSGHPHHMRKNDCWNGESFTGKLADQASKANLMFEGGKNMTPVYTGALKDELVKTDKIYGKIKKRLLWGSDLATMIRCARAFGGLMDELKAHCVTLPIRVGMNMNEDGPIIFERHSRYKYHYDADYSRWDSTQQRAVLAAALEIMVKFSSEPHLAQVVAEDLLSPSVVDVGDFKISINEGLPSGVPCTSQWNSIAHWLLTLCALSEVTNLSPDIIQANSLFSFYGDDEIVSTDIKLDPEKLTAKLKEYGLKPTRPDKTEGPLVISEDLNGLTFLRRTVTRDPAGWFGKLEQSSILRQMYWTRGPNHEDPSETMIPHSQRPIQLMSLLGEAALHGPAFYSKISKLVIAELKEGGMDFYVPRQEPMFRWMRFSDLSTWEGDRNLAPSFVNEDGVEVDKLAAALEHHHHHH | soluble |
| MGSDKIHHHHHHMERSWTINGRFLAQPLTGVQRYAFEIVRALDELIVNQPLLASRLKIELLVPRDAKVPSLRAISTRAIAIAPMHGHLWEQAALAAHVRGGLLSFCNTGPLSVRKQILCIHDVNTRTYPQSYSLPFRLLYRTLLPALGRRVAAVATVSRYSAGELVRHRICGPDKITVIPNGHEHAASWKPRHSQRTRAVAGRDTIVVIGSAIAHKNTGLIIGMAERLAAVGLRIAVVGMSDARVYRTSGRKESASNVTWLGRLSDEELAALLQDCLCLAFPSFIEGFGLPPLEAMAIGCPIVVSNRASLPEICGEAALYASPNDAEAWFDRFMRVRNMPDVRDEMIGIGRMQASNFQWKASASRYLDIMAVLDGMSKPSGGPVAVSIA | not soluble |
| MGSDKIHHHHHHMKKGILIETDNVTRLRAAVKQAEDTERGRPGMVAVWGEAGAGKTIAAHSLYAQRGGVFLRAMEGMSQHAFLQELCWEVKGTRPHGSHRCRADILRALEEEPATVYVDEADRLDLRRLEDLRDIHDITGCPVVLIGEQHLPGKLAERTRIDDRIPEEYRVPFSGITPRDVSLFALEAAEIVLTPGAAGLIHKQAKGNFRRIHNLMLSVESAARAHDTTEVDEALVRAAMPAARSSASRAPRRGQHA | not soluble |
| MGSDKIHHHHHHMPETLNLNYYYGNEADQYSFYRIPKTLLTDRRYKGVSLEAKVLYGLLLDRMGLSARNGWLDNNGRVFLYFTQEEAMTMLGCGKDKVTKLFRELEGIGLMERKKQGQGHPARIYVKNFILEPEPTAPVQTAENQQSRPLPSAAVKTAEKPQSAPRKTSGQECGISAPNNTDINKTEKSDTDLSILPPTPSAVSSPAGKRAPRRMGLDEMESYRELIMENIDYDILLERYPYEKDLLDGYVELMLEVCCSTRESVRICGQEVPTEVIKSRFLKLNSEHIGYVMDSLKSNTAKIGNIKAYTLAALYNAPVTMGQYYTSLVSHDMAHGLLSG | not soluble |
